For data set [1], the target named is rKgp: mature recombinant Kgp catalytic domain with the ABM1 motif (Gly681-Ala710) deleted (Porphyromonas gingivalis W50).
For data set [2] the target is unchanged. The data set is described as follows: enzyme inhibition kinetics.
The data set “SEC” deals with the molecule itself. Description: SEC. In general terms: SEC sorts molecules by how far they enter the pores of the column.

Where “and” joins values, the source holds several entries; their conditions need not be identical. Identical values can stand only once.

Regarding “iodoacetylated Kgp propeptide monomer (from UniProt Q51817 20-228) (domain or fragment)”, the inhibition of rKgp by the iodoacetylated monomer (100 mg/L), substrate DQ-BSA in data set [1] worked out at 28 % inhibition.
In general, Ki refers to a measure of affinity in units of concentration, obtained from inhibition or displacement. Turning to “recombinant Kgp propeptide (thrombin-cleaved; used as DTT-stabilised monomer in the inhibition assays) (from UniProt Q51817 20-228) (domain or fragment)”, in data set [2], the Ki was 2.01 µM and 2.04 µM.

B1: recombinant Kgp propeptide (thrombin-cleaved; used as DTT-stabilised monomer in the inhibition assays) (domain or fragment)
chain: QSAKIKLDAPTTRTTCTNNSFKQFDASFSFNEVELTKVETKGGTFASVSIPGAFPTGEVGSPEVPAVRKLIAVPVGATPVVRVKSFTEQVYSLNQYGSEKLMPHQPSMSKSDDPEKVPFVYNAAAYARKGFVGQELTQVEMLGTMRGVRIAALTINPVQYDVVANQLKVRNNIEIEVSFQGADEVATQRLYDASFSPYFETAYKQLFNR
Usually stoichiometry N stands for the number of molecules, sites or subunits per partner or assembly. On to B1, for which, in the data set “SEC”, the “stoichiometry N” value was found to be 2.

Source of the values: publication PMC3677877 (PLoS ONE, 2013).
